Test results from PMC11993637.

Target: human hormone-sensitive lipase (HSL), adipocyte isoform (human)
Test: cryo-EM structure

stoichiometry N: 2
Substance: human hormone-sensitive lipase (HSL), adipocyte isoform (enzyme)
